Experimental data: PMC9482650, “Quantitative fragmentomics allow affinity mapping of interactomes” (Nature Communications, 2022)

T1: APBA2_1, Q99767
T1 sequence (Q99767 563-664, limits assumed, looked up): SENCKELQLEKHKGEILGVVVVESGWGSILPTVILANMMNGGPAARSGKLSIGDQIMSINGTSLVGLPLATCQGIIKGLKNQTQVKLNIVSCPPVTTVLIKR

T2: ARHGEF11, O15085
T2 sequence (O15085 42-136, limits assumed, looked up): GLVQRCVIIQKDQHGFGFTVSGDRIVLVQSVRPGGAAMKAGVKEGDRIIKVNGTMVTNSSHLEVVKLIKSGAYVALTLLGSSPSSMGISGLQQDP

T3: DFNB31_1, Q9P202
T3 sequence (Q9P202 135-233, limits assumed, looked up): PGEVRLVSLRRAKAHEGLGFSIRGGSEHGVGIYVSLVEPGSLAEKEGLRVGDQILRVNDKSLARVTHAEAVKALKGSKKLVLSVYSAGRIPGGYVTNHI

T4: DFNB31_3, Q9P202
T4 sequence (Q9P202 811-907, limits assumed, looked up): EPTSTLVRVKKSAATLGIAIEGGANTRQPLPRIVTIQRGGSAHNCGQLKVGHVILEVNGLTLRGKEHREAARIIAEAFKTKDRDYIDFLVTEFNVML

T5: DLG3_1, Q92796
T5 sequence (Q92796 125-227, limits assumed, looked up): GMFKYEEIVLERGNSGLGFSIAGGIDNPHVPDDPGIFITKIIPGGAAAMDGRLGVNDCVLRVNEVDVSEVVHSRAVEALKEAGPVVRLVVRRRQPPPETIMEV

T6: LIN7C, Q9NUP9
T6 sequence (Q9NUP9 88-185, limits assumed, looked up): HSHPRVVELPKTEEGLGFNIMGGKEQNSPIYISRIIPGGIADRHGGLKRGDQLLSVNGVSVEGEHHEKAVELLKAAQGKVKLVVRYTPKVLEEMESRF

T7: LRRC7, Q96NW7
T7 sequence (Q96NW7 1440-1537, limits assumed, looked up): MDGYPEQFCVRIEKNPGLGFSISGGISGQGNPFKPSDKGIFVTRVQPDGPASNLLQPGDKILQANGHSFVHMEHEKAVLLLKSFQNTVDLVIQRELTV

T8: MPDZ_12, O75970
T8 sequence (O75970 1857-1958, limits assumed, looked up): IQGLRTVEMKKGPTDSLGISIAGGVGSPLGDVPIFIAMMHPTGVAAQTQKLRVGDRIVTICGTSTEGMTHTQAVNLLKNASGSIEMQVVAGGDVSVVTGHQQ

T9: NHERF3_4, Q5T2W1
T9 sequence (Q5T2W1 373-468, limits assumed, looked up): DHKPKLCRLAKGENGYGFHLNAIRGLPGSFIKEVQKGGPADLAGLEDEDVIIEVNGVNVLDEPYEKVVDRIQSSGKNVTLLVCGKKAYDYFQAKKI

T10: PDZRN3_1, Q9UPQ7
T10 sequence (Q9UPQ7 244-349, limits assumed, looked up): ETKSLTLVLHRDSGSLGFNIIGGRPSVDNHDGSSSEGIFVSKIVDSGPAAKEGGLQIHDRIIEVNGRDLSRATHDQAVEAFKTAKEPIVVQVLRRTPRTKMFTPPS

T11: PTPN13_1, Q12923
T11 sequence (Q12923 1088-1188, limits assumed, looked up): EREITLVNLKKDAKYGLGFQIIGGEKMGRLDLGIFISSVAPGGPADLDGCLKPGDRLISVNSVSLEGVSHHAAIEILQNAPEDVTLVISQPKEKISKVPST

T12: TIAM2, Q8IVF5
T12 sequence (Q8IVF5 885-986, limits assumed, looked up): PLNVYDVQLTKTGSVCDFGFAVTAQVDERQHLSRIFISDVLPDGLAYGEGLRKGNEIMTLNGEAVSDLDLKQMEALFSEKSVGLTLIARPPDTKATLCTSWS


Experiments:
Test in all cases: holdup assay
Set-up in all cases: key: below the threshold = too weak to quantify, mostly under pKd 3.1 to 4
Conditions in all cases: plain residues with an end cap or a label only (N-terminal biotin on a linker: ado-ado)
AHNAK1, Q09666 = molecular target: AHNAK1, Q09666
Sequence of AHNAK1, Q09666 (Q09666 4-100): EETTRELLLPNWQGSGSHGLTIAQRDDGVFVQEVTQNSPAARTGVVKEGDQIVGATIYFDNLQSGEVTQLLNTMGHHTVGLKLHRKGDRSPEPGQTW

APBA2_1, Q99767 = molecular target: T1, APBA2_1, Q99767
ARHGEF11, O15085 = molecular target: T2, ARHGEF11, O15085
DFNB31_1, Q9P202 = molecular target: T3, DFNB31_1, Q9P202
DFNB31_3, Q9P202 = molecular target: T4, DFNB31_3, Q9P202
DLG1_2, Q12959 = molecular target: DLG1_2, Q12959
Sequence of DLG1_2, Q12959 (Q12959 314-412): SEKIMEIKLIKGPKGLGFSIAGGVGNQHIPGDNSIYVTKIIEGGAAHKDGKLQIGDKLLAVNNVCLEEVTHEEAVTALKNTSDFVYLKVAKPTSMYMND

DLG1_3, Q12959 = molecular target: DLG1_3, Q12959
Sequence of DLG1_3, Q12959 (Q12959 457-571): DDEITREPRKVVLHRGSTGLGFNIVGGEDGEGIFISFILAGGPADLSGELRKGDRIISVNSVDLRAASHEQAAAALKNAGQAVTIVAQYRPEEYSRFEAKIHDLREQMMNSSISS

DLG3_1, Q92796 = molecular target: T5, DLG3_1, Q92796
HTRA2, O43464 = molecular target: HTRA2, O43464
Sequence of HTRA2, O43464 (O43464 355-458): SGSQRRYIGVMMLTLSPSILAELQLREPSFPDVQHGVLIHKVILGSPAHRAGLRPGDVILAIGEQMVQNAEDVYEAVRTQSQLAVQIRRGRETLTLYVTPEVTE

Inadl_1, Q8NI35 = molecular target: Inadl_1, Q8NI35
Sequence of Inadl_1, Q8NI35 (Q8NI35 113-229): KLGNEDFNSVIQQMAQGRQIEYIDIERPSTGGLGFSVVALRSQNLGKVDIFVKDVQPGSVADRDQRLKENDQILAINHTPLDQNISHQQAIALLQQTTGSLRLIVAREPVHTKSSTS

Inadl_9, Q8NI35 = molecular target: Inadl_9, Q8NI35
Sequence of Inadl_9, Q8NI35 (Q8NI35 1530-1615): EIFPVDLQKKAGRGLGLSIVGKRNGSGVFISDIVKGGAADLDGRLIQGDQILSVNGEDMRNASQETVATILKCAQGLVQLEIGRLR

LIN7C, Q9NUP9 = molecular target: T6, LIN7C, Q9NUP9
LNX1_3, Q8TBB1 = molecular target: LNX1_3, Q8TBB1
Sequence of LNX1_3, Q8TBB1 (Q8TBB1 500-596): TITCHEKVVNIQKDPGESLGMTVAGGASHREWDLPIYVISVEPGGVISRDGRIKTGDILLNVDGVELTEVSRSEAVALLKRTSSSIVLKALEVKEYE

LRRC7, Q96NW7 = molecular target: T7, LRRC7, Q96NW7
MAGI1_1, Q96QZ7 = molecular target: MAGI1_1, Q96QZ7
Sequence of MAGI1_1, Q96QZ7 (Q96QZ7 1-106): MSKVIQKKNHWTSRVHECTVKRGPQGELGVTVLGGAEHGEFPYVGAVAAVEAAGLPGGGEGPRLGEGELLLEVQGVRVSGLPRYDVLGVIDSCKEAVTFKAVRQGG

MAGI2_6, Q86UL8 = molecular target: MAGI2_6, Q86UL8
Sequence of MAGI2_6, Q86UL8 (Q86UL8 1141-1229): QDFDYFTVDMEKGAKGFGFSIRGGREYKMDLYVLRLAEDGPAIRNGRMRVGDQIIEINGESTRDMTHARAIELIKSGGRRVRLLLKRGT

MAST2, Q6P0Q8 = molecular target: MAST2, Q6P0Q8
Sequence of MAST2, Q6P0Q8 (Q6P0Q8 1099-1202): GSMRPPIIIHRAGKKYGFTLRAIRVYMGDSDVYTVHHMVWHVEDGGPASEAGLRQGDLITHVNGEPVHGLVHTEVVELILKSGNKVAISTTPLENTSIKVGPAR

MPDZ_12, O75970 = molecular target: T8, MPDZ_12, O75970
NHERF2_2, Q15599 = molecular target: NHERF2_2, Q15599
Sequence of NHERF2_2, Q15599 (Q15599 142-238): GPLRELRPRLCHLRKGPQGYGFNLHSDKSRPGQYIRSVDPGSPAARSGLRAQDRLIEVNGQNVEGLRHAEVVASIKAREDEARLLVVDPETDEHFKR

NHERF3_4, Q5T2W1 = molecular target: T9, NHERF3_4, Q5T2W1
NHERF4_2, Q86UT5 = molecular target: NHERF4_2, Q86UT5
Sequence of NHERF4_2, Q86UT5 (Q86UT5 220-308): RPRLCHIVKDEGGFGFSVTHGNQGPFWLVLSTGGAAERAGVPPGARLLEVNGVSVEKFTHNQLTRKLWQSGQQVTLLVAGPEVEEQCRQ

NHERF4_4, Q86UT5 = molecular target: NHERF4_4, Q86UT5
Sequence of NHERF4_4, Q86UT5 (Q86UT5 464-550): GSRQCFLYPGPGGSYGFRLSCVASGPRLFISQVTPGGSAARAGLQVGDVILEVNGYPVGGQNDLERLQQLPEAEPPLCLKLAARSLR

PDZRN3_1, Q9UPQ7 = molecular target: T10, PDZRN3_1, Q9UPQ7
PTPN13_1, Q12923 = molecular target: T11, PTPN13_1, Q12923
TIAM2, Q8IVF5 = molecular target: T12, TIAM2, Q8IVF5
TJP1_3, Q07157 = molecular target: TJP1_3, Q07157
Sequence of TJP1_3, Q07157 (Q07157 416-512): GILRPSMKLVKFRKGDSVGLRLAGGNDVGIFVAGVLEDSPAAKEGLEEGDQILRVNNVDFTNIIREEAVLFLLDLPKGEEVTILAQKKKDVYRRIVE

| pKd (AHNAK1, Q09666) | pKd (APBA2_1, Q99767) | pKd (ARHGEF11, O15085) | pKd (DFNB31_1, Q9P202) | pKd (DFNB31_3, Q9P202) | pKd (DLG1_2, Q12959) | pKd (DLG1_3, Q12959) | pKd (DLG3_1, Q92796) | pKd (HTRA2, O43464) | pKd (Inadl_1, Q8NI35) | pKd (Inadl_9, Q8NI35) | pKd (LIN7C, Q9NUP9) | pKd (LNX1_3, Q8TBB1) | pKd (LRRC7, Q96NW7) | pKd (MAGI1_1, Q96QZ7) | pKd (MAGI2_6, Q86UL8) | pKd (MAST2, Q6P0Q8) | pKd (MPDZ_12, O75970) | pKd (NHERF2_2, Q15599) | pKd (NHERF3_4, Q5T2W1) | Binder | further results |
| --- | --- | --- | --- | --- | --- | --- | --- | --- | --- | --- | --- | --- | --- | --- | --- | --- | --- | --- | --- | --- | --- |
| below the threshold | below the threshold | 4.15 | 3.55 | 4.1 | below the threshold | 3.72 | below the threshold | 4.3 | 3.99 | 3.53 | below the threshold | 4.47 | below the threshold | below the threshold | below the threshold | 4.54 | below the threshold | 3.56 | 3.54 | QSPPNIYYKV [EFNB3, Q15768] | pKd (NHERF4_2, Q86UT5): below the threshold; pKd (NHERF4_4, Q86UT5): below the threshold; pKd (PDZRN3_1, Q9UPQ7): below the threshold; pKd (PTPN13_1, Q12923): below the threshold; pKd (TIAM2, Q8IVF5): 4.01; pKd (TJP1_3, Q07157): below the threshold |
| below the threshold | below the threshold | 3.8 | 4.34 | 4.22 | below the threshold | below the threshold | below the threshold | below the threshold | below the threshold | below the threshold | below the threshold | below the threshold | below the threshold | below the threshold | below the threshold | 5.34 | below the threshold | 4.64 | 4.76 | ANGLMQTSKL [SSTR5, P35346] | pKd (NHERF4_2, Q86UT5): below the threshold; pKd (NHERF4_4, Q86UT5): below the threshold; pKd (PDZRN3_1, Q9UPQ7): below the threshold; pKd (PTPN13_1, Q12923): below the threshold; pKd (TIAM2, Q8IVF5): 3.65; pKd (TJP1_3, Q07157): below the threshold |
| below the threshold | below the threshold | 4.35 | below the threshold | 4.74 | 5.28 | 4.12 | 4.19 | 4.52 | below the threshold | 4.11 | below the threshold | below the threshold | below the threshold | below the threshold | 4.16 | 4.99 | 3.77 | 3.63 | 3.53 | NASRTRITFV [MCM7, P33993] | pKd (NHERF4_2, Q86UT5): below the threshold; pKd (NHERF4_4, Q86UT5): below the threshold; pKd (PDZRN3_1, Q9UPQ7): 3.89; pKd (PTPN13_1, Q12923): below the threshold; pKd (TIAM2, Q8IVF5): 4.06; pKd (TJP1_3, Q07157): below the threshold |
| below the threshold | below the threshold | below the threshold | 4.57 | 4.23 | 3.73 | 3.71 | below the threshold | below the threshold | below the threshold | below the threshold | 3.98 | below the threshold | below the threshold | below the threshold | below the threshold | 5.27 | below the threshold | 3.78 | below the threshold | PAPGQHTTQI [STK16, O75716] | pKd (NHERF4_2, Q86UT5): below the threshold; pKd (NHERF4_4, Q86UT5): below the threshold; pKd (PDZRN3_1, Q9UPQ7): below the threshold; pKd (PTPN13_1, Q12923): below the threshold; pKd (TIAM2, Q8IVF5): 3.97; pKd (TJP1_3, Q07157): below the threshold |
| below the threshold | below the threshold | 3.79 | below the threshold | below the threshold | below the threshold | 3.76 | below the threshold | below the threshold | below the threshold | 3.63 | below the threshold | below the threshold | below the threshold | 3.55 | below the threshold | below the threshold | 3.6 | 3.48 | below the threshold | ETSLVKGIDI [DENND5A, Q6IQ26] | pKd (NHERF4_2, Q86UT5): below the threshold; pKd (NHERF4_4, Q86UT5): 3.87; pKd (PDZRN3_1, Q9UPQ7): below the threshold; pKd (PTPN13_1, Q12923): below the threshold; pKd (TIAM2, Q8IVF5): below the threshold; pKd (TJP1_3, Q07157): below the threshold |
